Read-outs that look alike come from different tables or passages of the source.
How the values were obtained:
AUC [1] = biological target: the molecule itself; test: AUC
AUC [2] = biological target: the molecule itself; test: AUC; remark: listed apart in the source

Protein | stoichiometry N (AUC [1]) | stoichiometry N (AUC [2])
wild type human Prx I (peroxiredoxin I), reduced, non-glutathionylated (enzyme, UniProt Q06830 1-199, looked up) MSSGNAKIGHPAPNFKATAVMPDGQFKDISLSDYKGKYVVFFFYPLDFTFVCPTEIIAFSDRAEEFKKLNCQVIGASVDSHFCHLAWVNTPKKQGGLGPMNIPLVSDPKRTIAQDYGVLKADEGISFRGLFIIDDKGILRQITVNDLPVGRSVDETLRLVQAFQFTDKHGEVCPAGWKPGSDTIKPDVQKSKEYFSKQK | 10 | 
glutathionylated Prx I (C83S) mutant (enzyme, human, UniProt Q06830 1-199, looked up, glutathionylated by disulfide exchange with GSSG; sites not stated for this mutant) MSSGNAKIGHPAPNFKATAVMPDGQFKDISLSDYKGKYVVFFFYPLDFTFVCPTEIIAFSDRAEEFKKLNCQVIGASVDSHFSHLAWVNTPKKQGGLGPMNIPLVSDPKRTIAQDYGVLKADEGISFRGLFIIDDKGILRQITVNDLPVGRSVDETLRLVQAFQFTDKHGEVCPAGWKPGSDTIKPDVQKSKEYFSKQK |  | 2
human Prx I (C52S/C173S) double mutant, reduced (enzyme, UniProt Q06830 1-199, looked up) MSSGNAKIGHPAPNFKATAVMPDGQFKDISLSDYKGKYVVFFFYPLDFTFVSPTEIIAFSDRAEEFKKLNCQVIGASVDSHFCHLAWVNTPKKQGGLGPMNIPLVSDPKRTIAQDYGVLKADEGISFRGLFIIDDKGILRQITVNDLPVGRSVDETLRLVQAFQFTDKHGEVSPAGWKPGSDTIKPDVQKSKEYFSKQK | 10 | 

Reference: article PMC3176717 (Biochemistry, 2011)
